Results published in patent US20110263454A1, “Methods of Identifying Functional Characteristics of Promoters, Transcription Modifying Proteins and Transcription Modulating Agents” (Salk Institute for Biological Studies, priority 2008, published 2011).

B1: RVRa: Rev-Erb α (NR1D1), cDNA driver (protein, UniProt P20393 1-614, looked up)
Nuclear receptor subfamily 1 …: MTTLDSNNNTGGVITYIGSSGSSPSRTSPESLYSDNSNGSFQSLTQGCPTYFPPSPTGSLTQDPARSFGSIPPSLSDDGSPSSSSSSSSSSSSFYNGSPPGSLQVAMEDSSRVSPSKSTSNITKLNGMVLLCKVCGDVASGFHYGVHACEGCKGFFRRSIQQNIQYKRCLKNENCSIVRINRNRCQQCRFKKCLSVGMSRDAVRFGRIPKREKQRMLAEMQSAMNLANNQLSSQCPLETSPTQHPTPGPMGPSPPPAPVPSPLVGFSQFPQQLTPPRSPSPEPTVEDVISQVARAHREIFTYAHDKLGSSPGNFNANHASGSPPATTPHRWENQGCPPAPNDNNTLAAQRHNEALNGLRQAPSSYPPTWPPGPAHHSCHQSNSNGHRLCPTHVYAAPEGKAPANSPRQGNSKNVLLACPMNMYPHGRSGRTVQEIWEDFSMSFTPAVREVVEFAKHIPGFRDLSQHDQVTLLKAGTFEVLMVRFASLFNVKDQTVMFLSRTTYSLQELGAMGMGDLLSAMFDFSEKLNSLALTEEELGLFTAVVLVSADRSGMENSASVEQLQETLLRALRALVLKNRPLETSRFTKLLLKLPDLRTLNNMHSEKLLSFRVDAQ
B2: RARb: Retinoic acid receptor β (NR1B2), nuclear hormone receptor cDNA driver (protein, UniProt P10826 1-455, looked up)
Retinoic acid receptor beta: MTTSGHACPVPAVNGHMTHYPATPYPLLFPPVIGGLSLPPLHGLHGHPPPSGCSTPSPATIETQSTSSEELVPSPPSPLPPPRVYKPCFVCQDKSSGYHYGVSACEGCKGFFRRSIQKNMIYTCHRDKNCVINKVTRNRCQYCRLQKCFEVGMSKESVRNDRNKKKKETSKQECTESYEMTAELDDLTEKIRKAHQETFPSLCQLGKYTTNSSADHRVRLDLGLWDKFSELATKCIIKIVEFAKRLPGFTGLTIADQITLLKAACLDILILRICTRYTPEQDTMTFSDGLTLNRTQMHNAGFGPLTDLVFTFANQLLPLEMDDTETGLLSAICLICGDRQDLEEPTKVDKLQEPLLEALKIYIRKRRPSKPHMFPKILMKITDLRSISAKGAERVITLKMEIPGSMPPLIQEMLENSEGHEPLTPSSSGNTAEHSPSISPSSVENSGVSQSPLVQ
B3: RARa: Retinoic acid receptor α (NR1B1), nuclear hormone receptor cDNA driver (protein, UniProt P10276 1-462, looked up)
Retinoic acid receptor alpha: MASNSSSCPTPGGGHLNGYPVPPYAFFFPPMLGGLSPPGALTTLQHQLPVSGYSTPSPATIETQSSSSEEIVPSPPSPPPLPRIYKPCFVCQDKSSGYHYGVSACEGCKGFFRRSIQKNMVYTCHRDKNCIINKVTRNRCQYCRLQKCFEVGMSKESVRNDRNKKKKEVPKPECSESYTLTPEVGELIEKVRKAHQETFPALCQLGKYTTNNSSEQRVSLDIDLWDKFSELSTKCIIKTVEFAKQLPGFTTLTIADQITLLKAACLDILILRICTRYTPEQDTMTFSDGLTLNRTQMHNAGFGPLTDLVFAFANQLLPLEMDDAETGLLSAICLICGDRQDLEQPDRVDMLQEPLLEALKVYVRKRRPSRPHMFPKMLMKITDLRSISAKGAERVITLKMEIPGSMPPLIQEMLENSEGLDTLSGQPGGGGRDGGGLAPPPGSCSPSLSPSSNRSSPATHSP
B4: RORg: RAR-related Orphan Receptor γ (NR1F3), cDNA driver (protein, UniProt P51449 1-518, looked up)
Nuclear receptor ROR-gamma: MDRAPQRQHRASRELLAAKKTHTSQIEVIPCKICGDKSSGIHYGVITCEGCKGFFRRSQRCNAAYSCTRQQNCPIDRTSRNRCQHCRLQKCLALGMSRDAVKFGRMSKKQRDSLHAEVQKQLQQRQQQQQEPVVKTPPAGAQGADTLTYTLGLPDGQLPLGSSPDLPEASACPPGLLKASGSGPSYSNNLAKAGLNGASCHLEYSPERGKAEGRESFYSTGSQLTPDRCGLRFEEHRHPGLGELGQGPDSYGSPSFRSTPEAPYASLTEIEHLVQSVCKSYRETCQLRLEDLLRQRSNIFSREEVTGYQRKSMWEMWERCAHHLTEAIQYVVEFAKRLSGFMELCQNDQIVLLKAGAMEVVLVRMCRAYNADNRTVFFEGKYGGMELFRALGCSELISSIFDFSHSLSALHFSEDEIALYTALVLINAHRPGLQEKRKVEQLQYNLELAFHHHLCKTHRQSILAKLPPKGKLRSLCSQHVERLQIFQHLHPIVVQAAFPPLYKELFSTETESPVGLSK
B5: RARg: Retinoic acid receptor γ (NR1B3), nuclear hormone receptor cDNA driver (protein, UniProt P13631 1-454, looked up)
Retinoic acid receptor gamma: MATNKERLFAAGALGPGSGYPGAGFPFAFPGALRGSPPFEMLSPSFRGLGQPDLPKEMASLSVETQSTSSEEMVPSSPSPPPPPRVYKPCFVCNDKSSGYHYGVSSCEGCKGFFRRSIQKNMVYTCHRDKNCIINKVTRNRCQYCRLQKCFEVGMSKEAVRNDRNKKKKEVKEEGSPDSYELSPQLEELITKVSKAHQETFPSLCQLGKYTTNSSADHRVQLDLGLWDKFSELATKCIIKIVEFAKRLPGFTGLSIADQITLLKAACLDILMLRICTRYTPEQDTMTFSDGLTLNRTQMHNAGFGPLTDLVFAFAGQLLPLEMDDTETGLLSAICLICGDRMDLEEPEKVDKLQEPLLEALRLYARRRRPSQPYMFPRMLMKITDLRGISTKGAERAITLKMEIPGPMPPLIREMLENPEMFEDDSSQPGPHPNASSEDEVPGGQGKGGLKSPA
B6: RVRb: Rev-Erb β (NR1D2, alternative name RVR), cDNA driver (protein, UniProt Q14995 1-579, looked up)
Nuclear receptor subfamily 1 …: MEVNAGGVIAYISSSSSASSPASCHSEGSENSFQSSSSSVPSSPNSSNSDTNGNPKNGDLANIEGILKNDRIDCSMKTSKSSAPGMTKSHSGVTKFSGMVLLCKVCGDVASGFHYGVHACEGCKGFFRRSIQQNIQYKKCLKNENCSIMRMNRNRCQQCRFKKCLSVGMSRDAVRFGRIPKREKQRMLIEMQSAMKTMMNSQFSGHLQNDTLVEHHEQTALPAQEQLRPKPQLEQENIKSSSPPSSDFAKEEVIGMVTRAHKDTFMYNQEQQENSAESMQPQRGERIPKNMEQYNLNHDHCGNGLSSHFPCSESQQHLNGQFKGRNIMHYPNGHAICIANGHCMNFSNAYTQRVCDRVPIDGFSQNENKNSYLCNTGGRMHLVCPMSKSPYVDPHKSGHEIWEEFSMSFTPAVKEVVEFAKRIPGFRDLSQHDQVNLLKAGTFEVLMVRFASLFDAKERTVTFLSGKKYSVDDLHSMGAGDLLNSMFEFSEKLNALQLSDEEMSLFTAVVLVSADRSGIENVNSVEALQETLIRALRTLIMKNHPNEASIFTKLLLKLPDLRSLNNMHSEELLAFKVHP

Test system: SREBP1c promoter
Experiment: NHR-promoter luciferase screen, SREBP1c promoter
Type: cell-based, mouse
Conditions: SREBP1c promoter; HR component without or with ligand
Protocol: (§1) The use, feasibility, and reproducibility of the functional NHR-promoter screen in a 48-well format have been tested validated. Briefly, there were co-expressed 50 ng of each NHR/NHR homodimer or NHR/RXR heterodimer with 100 ng promoter/luciferase construct and 50 ng of LacZ (as a control for transfection efficiency) in CV-1 cells using Fugene HD (Roche) as a transfection reagent (alternatively or additionally, a CMV-YFP construct can be used as a transfection control). Each of the nuclear hormone receptors that were used in these experiments was cloned into a pcDNA3.1 vector and comprised a C-terminally linked V5H6 tag. Twenty-four hours after transfection, appropriate ligands were added, where applicable, (see Table 5 for various ligands and concentrations and after 48 hrs, samples were assayed for luciferase and LacZ activity. To measure for luciferase activity 15 ul of sample was added to 30 ul of luciferase buffer (20 mM tricine, 1.07 mM MgCarbonate, 2.67 mM MgSulfate, 0.1 mM Naz-EDTA, 5 mM DTT, 5 mM ATP, 0.15 mg/ml CoA, 0.5 mM Luciferin), mixed briefly, and run in a Perkin Elmer Victor 5 luminometer. Thus, the functional NHR-promoter screen was used to observe the transcriptional activity of 29 promoters from various physiological pathways including inflammation, lipid and sugar metabolism, cholesterol transport, xenobiotic metabolism, and circadian rhythm.
(§2) The promoters that facilitate transcription of the indicated gene products that were tested using the protocols described herein are listed in the first row of the table. The nuclear hormone receptors and, where applicable, ligands that were assayed for their transcriptional effects on the promoters are listed in the first column of the table. The data represent the luciferase activity of each sample normalized to both the lacZ activity of that sample and to a control, e.g., no NHR or ligand, as customary in the art. As described previously, these normalizations allow the transcriptional activity of each reporter cell to be compared to other samples.
(§3) Tables 7-40 show the transcriptional effects of the hormone receptors, and, where applicable, ligands (orphan receptors are screened without ligand), on each individual promoter. […] The control data of each table are shown in their last rows.

Molecule | Luc. act., normalized to lacZ | Normalized Luc. act., normalized to control
B1 | 574.4 | 1.8
B2 | 1056.4 | 3.3
B3 | 854.2 | 2.7
B4 | 644.8 | 2.0
B5 | 1052.4 | 3.3
B6 | 721.7 | 2.2

Same assay, conditions: transcription factor +/- ligand; control = 1.00

Molecule | mSREBP1-c promoter reporter activity
B1 | 1.78
B2 | 3.28
B3 | 2.65
B4 | 2.00
B5 | 3.27
B6 | 2.24

Test system: mDio1 promoter
Experiment: NHR-promoter luciferase screen, mDio1 promoter
Type: cell-based, mouse
Conditions: Dio1; HR component without or with its ligand
Protocol: as §1, §2, §3

Molecule | Luc. act., normalized to lacZ | Normalized Luc. act., normalized to control
B1 | 5.7 | 1.3
B2 | 6.8 | 1.5
B3 | 7.4 | 1.7
B4 | 5.7 | 1.3
B5 | 7.2 | 1.6
B6 | 8.8 | 2.0

Same assay, conditions: transcription factor +/- ligand; control = 1.00

Molecule | mDio1 promoter reporter activity
B1 | 1.27
B2 | 1.54
B3 | 1.66
B4 | 1.29
B5 | 1.61
B6 | 1.97

Test system: mGhrelin promoter
Experiment: NHR-promoter luciferase screen, mGhrelin promoter
Type: cell-based, mouse
Conditions: Table 8; mGhrelin
Protocol: as §1, §2, §3

Molecule | Luc. act., normalized to lacZ | Normalized Luc. act., normalized to control
B1 | 79.3 | 1.5
B2 | 84.4 | 1.6
B3 | 67.2 | 1.3
B4 | 109.2 | 2.1
B5 | 88.8 | 1.7
B6 | 126.8 | 2.4

Same assay, conditions: Table 6d; luciferase activity relative to control (control = 1.00)

Molecule | Results of assays of transcription factor (+/- ligand) with mGhrelin
B1 | 1.52
B2 | 1.61
B3 | 1.29
B4 | 2.09
B5 | 1.70
B6 | 2.43
